Assay results reported in paper PMC4667285, “Octameric structure of Staphylococcus aureus enolase in complex with phosphoenolpyruvate” (Acta Crystallographica Section D: Biological Crystallography, 2015).

Assays:
Sa_enolase (octamer) = molecular target: T1, Sa_enolase (octamer) (Staphylococcus aureus, UniProt O69174); test: isothermal titration calorimetry; assay type: binding
T1 construct: gene eno; C-terminal hexahistidine tag, pET-24a, E. coli BL21(DE3); residues 1-434 described; octamer fraction separated from dimer by size-exclusion chromatography

[1] = test system: O=C(O)[C@@H](CO)OP(=O)(O)O; test: purified protein; conditions: octamer, room temperature, 20 mM IMD–HCl, 400 mM KCl, 1 mM magnesium acetate pH 7.0
[2] = molecular target: Sa_enolase D355A mutant (Staphylococcus aureus) (UniProt Q2G028); test: SEC
[3] = molecular target: Sa_enolase F139A mutant (Staphylococcus aureus) (UniProt Q2G028); test: SEC
[4] = molecular target: Sa_enolase G138A mutant (Staphylococcus aureus) (UniProt Q2G028); test: SEC
[5] = molecular target: Sa_enolase Y135A mutant (Staphylococcus aureus) (UniProt Q2G028); test: SEC
[6] = molecular target: Staphylococcus aureus enolase, wild type (Staphylococcus aureus) (UniProt Q2G028); test: crystal structure; non-ligand-bound Sa_enolase, 2.45 Å, space group P42(1)2, a homodimer in the asymmetric unit, octamer by fourfold crystallographic symmetry; 0.01 M cobalt(II) chloride, 0.1 M MES pH 6.5, 1.8 M ammonium sulfate, 16°C
[7] = molecular target: Staphylococcus aureus enolase, wild type (Staphylococcus aureus) (UniProt Q2G028); test: crystal structure; PEP-bound Sa_enolase, 1.6 Å, space group I4, co-crystallised with 2-PG (1:10); 0.2 M ammonium acetate, 0.1 M Tris-HCl pH 8.5, 25% PEG 3350, 16°C

**Q.** `O=C(O)[C@@H](CO)OP(=O)(O)O` [2-PG] was tested. Which Kd (Sa_enolase (octamer)) did it give?
**A.** Its Kd is 15 ± 2.6 µM.

**Q.** How did the Km [1] turn out when “Sa_enolase (octamer) (Staphylococcus aureus)” was run?
**A.** The Km was 0.365 ± 0.030 × 10^−3 M.

**Q.** What about the Vmax [1] of the same compound?
**A.** The Vmax was 74.8 µM/min.

**Q.** What about the kcat [1] of the same compound?
**A.** The kcat was 83 s⁻¹.

**Q.** And the kcat/Km [1]?
**A.** The kcat/Km was 227000 M⁻¹ s⁻¹.

**Q.** “Sa_enolase D355A mutant (from UniProt Q2G028) (enzyme)” was tested. Which stoichiometry N [2] did it give?
**A.** Its stoichiometry N is 2.

**Q.** “Sa_enolase F139A mutant (from UniProt Q2G028) (enzyme)” was tested. Which stoichiometry N [3] did it give?
**A.** The stoichiometry N was 2.

**Q.** Which stoichiometry N [4] does the source give for “Sa_enolase G138A mutant (from UniProt Q2G028) (enzyme)” here?
**A.** The stoichiometry N was 2.

**Q.** How did the stoichiometry N [5] turn out when “Sa_enolase Y135A mutant (from UniProt Q2G028) (enzyme)” was run?
**A.** Its stoichiometry N is 2.

**Q.** Which results are given for “Staphylococcus aureus enolase, wild type (from UniProt Q2G028) (enzyme)”?
**A.** stoichiometry N [6]: 8; stoichiometry N [7]: 8
